Results published in paper PMC7343240.

Tests used:
[1] = target: IGF-1Rzip (leucine-zipper-stabilized human IGF-1R ectodomain) (human | Saccharomyces cerevisiae); test: cryo-EM structure; IGF-1Rzip mixed with IGF-II at a molar ratio of 1 to 1.5 (receptor homodimer to ligand) in TBSA (24.8 mM Tris-HCl pH 8.0, 137 mM NaCl, 2.7 mM KCl, 0.02% azide); single-particle reconstruction; open-leg and closed-leg 3D classes
[2] = target: IGF-1Rzip (leucine-zipper-stabilized human IGF-1R ectodomain) (human | Saccharomyces cerevisiae); test: europium time-resolved fluorescence competition binding assay (immunocapture); IGF-1Rzip (0.5 μg per well) captured on a plate coated with 24-31 anti-human IGF-1R antibody; Eu-IGF-I or Eu-IGF-II (~100,000 counts) with increasing concentrations of unlabelled IGF-I or IGF-II; 16 h at 4°C; one-site fit
[3] = target: holoIGF-1R (IGF-1R holoreceptor solubilized from P6 cells) (human) (UniProt P08069); test: europium time-resolved fluorescence competition binding assay (immunocapture); IGF-1R solubilized from P6 cells (100 μl lysate per well) captured on a plate coated with 24-31 anti-human IGF-1R antibody; Eu-IGF-I or Eu-IGF-II (~100,000 counts) with increasing concentrations of unlabelled IGF-I or IGF-II; 16 h at 4°C; one-site fit

Row | Substance | stoichiometry N (IGF-II per receptor homodimer) [1] | IC50 [2] [nM] | IC50 [3] [nM]
1 | "Receptor grade" IGF-II (GroPep) (ligand) | 1 | – | –
2 | human insulin-like growth factor I (IGF-I) (from UniProt P05019 49-118) (ligand) | – | 0.39 | –
3 | human insulin-like growth factor II (IGF-II), of Francis et al., 1993 (ligand) | – | 1.24 | 0.85
